{"source": "paper PMC3627646", "molecules": {"B1": {"name": "Nrg180-HA, wild type (UAS–Nrg–3xHA) (natural protein)", "chain": "KGNRPPRITKQPAPGELLFKVAQQNKESDNPFIIECEADGQPEPEYSWIKNGKKFDWQAYDNRMLRQPGRGTLVITIPKDEDRGHYQCFASNEFGTATSNSVYVRKAELNAFKDEAAKTLEAVEGEPFMLKCAAPDGFPSPTVNWMIQESIDGSIKSINNSRMTLDPEGNLWFSNVTREDASSDFYYACSATSVFRSEYKIGNKVLLDVKQMGVSASQNKHPPVRQYVSRRQSLALRGKRMELFCIYGGTPLPQTVWSKDGQRIQWSDRITQGHYGKSLVIRQTNFDDAGTYTCDVSNGVGNAQSFSIILNVNSVPYFTKEPEIATAAEDEEVVFECRAAGVPEPKISWIHNGKPIEQSTPNPRRTVTDNTIRIINLVKGDTGNYGCNATNSLGYVYKDVYLNVQAEPPTISEAPAAVSTVDGRNVTIKCRVNGSPKPLVKWLRASNWLTGGRYNVQANGDLEIQDVTFSDAGKYTCYAQNKFGEIQADGSLVVKEHTRITQEPQNYEVAAGQSATFRCNEAHDDTLEIEIDWWKDGQSIDFEAQPRFVKTNDNSLTIAKTMELDSGEYTCVARTRLDEATARANLIVQDVPNAPKLTGITCQADKAEIHWEQQGDNRSPILHYTIQFNTSFTPASWDAAYEKVPNTDSSFVVQMSPWANYTFRVIAFNKIGASPPSAHSDSCTTQPDVPFKNPDNVVGQGTEPNNLVISWTPMPEIEHNAPNFHYYVSWKRDIPAAAWENNNIFDWRQNNIVIADQPTFVKYLIKVVAINDRGESNVAAEEVVGYSGEDRPLDAPTNFTMRQITSSTSGYMAWTPVSEESVRGHFKGYKIQTWTENEGEEGLREIHVKGDTHNALVTQFKPDSKNYARILAYNGRFNGPPSAVIDFDTPEGVPSPVQGLDAYPLGSSAFMLHWKKPLYPNGKLTGYKIYYEEVKESYVGERREYDPHITDPRVTRMKMAGLKPNSKYRISITATTKMGEGSEHYIEKTTLKDAVNVAPATPSFSWEQLPSDNGLAKFRINWLPSTEGHPGTHFFTMHRIKGETQWIRENEEKNSDYQEVGGLDPETAYEFRVVSVDGHFNTESATQEIDTNTVEGPIMVANETVANAGWFIGMMLALAFIIILFIIICIIRRNRGGKYDVHDRELANGRRDYPEEGGFHEYSQPLDNKSAGRQSVSSANKPGVESDTDSMAEYGDGDTGQFTEDGSFIGQYVPGKLQPPVSPQPLNNSAAAHQAAPTAGGSGAAGSAAAAGASGGASSAGGAAASNGGAAAGAVATYV"}}, "key": {"[1]": {"target": "Ank2-S–EGFP (short isoform of Ank2 containing all potential Nrg interacting domains) (Drosophila)", "test": "co-IP; S2 cells co-transfected with act5C–Gal4, UAS–Ank2-S–EGFP and UAS–Nrg–3xHA; IP of Nrg180-HA proteins using Ank2-S–GFP; blots with anti-HA and anti-GFP; four independent IPs quantified (Odyssey2.1)"}, "[2]": {"target": "Ankyrin2, large isoform (Ank2-L) (Drosophila (endogenous in larval brain))"}, "[3]": {"target": "Ankyrin2, large isoform (Ank2-L) (Drosophila (endogenous in larval brain))", "remark": "listed apart in the source"}}}
{"molecule": "Nrg180-HA Y-A (tyrosine of the FIGQY motif replaced with alanine) (from UniProt P20241-1 24-1302) (natural protein)", "values": [{"measurement": "decrease in binding capacities compared to wild-type", "setting": "[1]", "result": 90, "unit": "%"}, {"measurement": "FRAP of GFP-tagged Nrg180^Y-A in motoneurons in vivo (ok371–Gal4): mobility against wild type (fold against wild type)", "setting": "[2]", "result": "> 1.5"}]}
{"molecule": "Nrg180-HA Y-D (tyrosine of the FIGQY motif replaced with aspartate) (from UniProt P20241-1 24-1302) (natural protein)", "values": [{"measurement": "decrease in binding capacities compared to wild-type", "setting": "[1]", "result": 70, "unit": "%"}, {"measurement": "FRAP of GFP-tagged Nrg180^Y-D in motoneurons in vivo (ok371–Gal4): mobility against wild type (fold against wild type)", "setting": "[2]", "result": "> 1.5"}]}
{"molecule": "Nrg180-HA Y-F (tyrosine of the FIGQY motif replaced with phenylalanine) (from UniProt P20241-1 24-1302) (natural protein)", "values": [{"measurement": "decrease in binding capacities compared to wild-type", "setting": "[1]", "result": 30, "unit": "%"}, {"measurement": "FRAP of GFP-tagged Nrg180^Y-F in motoneurons in vivo (ok371–Gal4): mobility against wild type (fold against wild type)", "setting": "[2]", "result": "> 1.5"}]}
{"molecule": "Nrg180-HA ΔFIGQY (entire FIGQY motif deleted) (from UniProt P20241-1 24-1302) (natural protein)", "values": [{"measurement": "FRAP of GFP-tagged Nrg180^ΔFIGQY in motoneurons in vivo (ok371–Gal4): mobile fraction", "setting": "[3]", "result": 80, "unit": "%"}]}
{"molecule": "B1", "values": [{"measurement": "FRAP of GFP-tagged Nrg180 in motoneurons in vivo (ok371–Gal4): mobile fraction (% of total protein)", "setting": "[3]", "result": 40}]}
